These results are taken from patent publication US20240279318A1 (NANJING LEGEND BIOTECH, published 2024).

Where a chain is given by its changes, count along the chain named.

First the molecules themselves.
B1: AS170036 VL1VH1 HL107N (scFv)
scFv: QSALTQPRSVSGSPGQSVTISCAGTSSDVGSENYVSWYQQHPGKAPKLMIYQVNKRASGVPDRFSGSKSGNTASLTISGLQAEDEADYYCASYRSSDHNIVFGGGTKLTVLGGGGSGGGGSGGGGSEVQLVESGGGLVQPGGSLRLSCAASGFTFSSYAMSWVRQAPGKGLEWVSTINSGTGSPYYADSVKGRFTISRDNSKNTLYLQMNSLRAEDTAVYYCAKNFFDGSWFNGPPAMDYWGQGTLVTVSSHHHHHH
B2: AS170036 VL1VH1 HL107S (scFv)
scFv: B1 scFv with N233S
B3: AS170036 VL1VH1 HP58F (scFv)
scFv: B1 scFv with P184F, N233L
B4: AS170036 VL1VH1 HL107Q (scFv)
scFv: B1 scFv with N233Q
B5: AS170036 VL1VH1 HP58N (scFv)
scFv: B1 scFv with P184N, N233L
B6: AS170036 VL1VH1 HP58A (scFv)
scFv: B1 scFv with P184A, N233L
B7: AS170036 VL1VH1 HL107V (scFv)
scFv: B1 scFv with N233V
B8: AS170036 VL1VH1 HL107T (scFv)
scFv: B1 scFv with N233T
B9: AS170036 VL1VH1 HP58D (scFv)
scFv: B1 scFv with P184D, N233L
B10: AS170036 VL1VH1 HP58E (scFv)
scFv: B1 scFv with P184E, N233L
B11: AS170036 VL1VH1 HP58M (scFv)
scFv: B1 scFv with P184M, N233L
B12: AS170036 VL1VH1 HP58G (scFv)
scFv: B1 scFv with P184G, N233L
B13: AS170036 VL1VH1 HP58Q (scFv)
scFv: B1 scFv with P184Q, N233L
B14: AS170036 VL1VH1 HP58K (scFv)
scFv: B1 scFv with P184K, N233L
B15: AS170036 VL1VH1 HP58S (scFv)
scFv: B1 scFv with P184S, N233L
B16: AS170036 VL1VH1 HP58H (scFv)
scFv: B1 scFv with P184H, N233L
B17: AS170036 VL1VH1 HP58R (scFv)
scFv: B1 scFv with P184R, N233L

The target in the first assay is T1, AFP158/HLA-A*02:01 complex (human).
T1 construct: biotinylated on the BSP by BirA for ELISA and panning; also called biotinylated AFP158/HLA-A*02:01 complex; Bio-AFP158
The assay is described as follows: SPR; vs AS170036 VL1VH1.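 Also: crude scFv captured on sensor chip, peptide–HLA complex flowed over at several concentrations, KD estimated from association and dissociation kinetic rates.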
Description: The experiment was carried out as follows. The crude scFv protein were captured onto the sensorchip. Different concentrations (320, 160, 40 nM) of AFP158/HLA-A*02:01 complex flowed over the sensorchip surface, and were allowed to bind the antibody fragment for 100 s followed by injection of the running buffer to allow dissociation of the complex. On-rate (kd) and off-rate (kd) were calculated based on association and dissociation curve, and were used to estimate the equilibrium dissociation constant (KD).
In the case of B1, the Affinity increase amounted to 0.5 fold.
B2 gave an Affinity increase of 0.1 fold.
Same read-out and setting: the figure for B3 is 0.2 fold; for B4 it is 0.2 fold; for B5 it is 0.2 fold.
As for B6, the Affinity increase worked out at 0.7 fold.
Regarding B7, the Affinity increase was 0.1 fold.
B8 returned an Affinity increase of 0.1 fold.
On the same count and under the same terms, under B9 stands 0.4 fold.
In turn, B10 returned an Affinity increase of 0.5 fold.
The molecule B11 showed an Affinity increase of 0.2 fold.
On to B12, for which the Affinity increase came to 0.9 fold.
The same measure, in the same setting: under B13 stands 0.5 fold; under B14, 0.3 fold.
Molecule B15 displayed an Affinity increase of 0.3 fold.
The molecule B16 showed an Affinity increase of 0.3 fold.
Same read-out and setting: the figure for B17 is 0.2 fold.

Another assay deals with T1, AFP158/HLA-A*02:01 complex. Put plainly: SPR, crude scFv captured.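 Also: Peptide–MHC complex flowed at several concentrations over sensorchip-captured scFv, Kd derived from on- and off-rates obtained from the association and dissociation curves.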 Background: In SPR one partner is held on a chip, and binding of the other changes the refractive index at the surface.
In turn, B1 registered a Kd of 530 nM.
For the molecule B2, binding was characterised by a dissociation constant (Kd) of 4100 nM.
Molecule B3 had a Kd of 1700 nM.
For the molecule B4, the Kd amounted to 1600 nM.
Molecule B5 displayed a Kd of 1500 nM. The Kd values of the last two molecules are within 1.5-fold of each other.
On the same count and under the same terms, the figure for B6 is 380 nM; for B7 it is 2500 nM; for B8 it is 2800 nM.
Regarding B9, binding was put at a Kd of 660 nM.
As for B10, the Kd stood at 600 nM.
The molecule B11 had a Kd of 1500 nM.
The molecule B12 displayed a Kd of 320 nM. This Kd is about 4.7-fold lower than that of the molecule before.
Still for that read-out and setting: the figure for B13 is 500 nM; for B14 it is 860 nM; for B15 it is 780 nM.
In the case of B16, the affinity, expressed as Kd, was 1000 nM. This Kd and that of the molecule before are within 1.5-fold of each other.
For the molecule B17, the Kd worked out at 1200 nM.

A word on the Kd: it is the constant that tells how readily two partners part at equilibrium. High values mean lower affinity, low ones higher affinity.
